Experimental data as given in patent US20230391837A1 (ROWAN UNIVERSITY, published 2023).

Biological target: T1, human angiotensin converting enzyme 2 (ACE2) receptor on HSC-2 oral squamous cell carcinoma cells (human, UniProt Q9BYF1 18-805)
T1 construct: whole, on cells
Assay: live cell confocal microscopy of HSC-2 cells with Alexa 595 labeled MASL (legend prints 1.4 pM) and Alexa 647 labeled ACE2 monoclonal antibody. This is colocalisation, not a direct binding assay.

B1: Maackia amurensis seed lectin (MASL) (other)
chain: SDELSFTINNFVPNEADLLFQGEASVSSTGVLQLTRVENGQPQQYSVGRALYAAPVRIWDNTTGSVASFSTSFTFVVKAPNPTITSDGLAFFLAPPDSQIPSGRVSKYLGLFNNSNSDSSNQIVAVEFDTYFGHSYDPWDPNYRHIGIDVNGIESIKTVQWDWINGGVAFATITYLAPNKTLIASLVYPSNQTSFIVAASVDLKEILPEWVRVGFSAATGYPTQVETHDVLSWSFTSTLEANCDAATEN
notes: also called Maacki amurensis seed lectin
- binding result: binds
